# Results: the supplement of paper PMC9170038
# Test system: MS2 coat protein
# Assay: apparent KD of MS2 coat protein; designed switch direction (-1 OFF switch, 1 ON switch): -1; higher = weaker reporter binding
# Outline: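 The apparent KD reported per design is the median over clusters of curve fits to normalised cluster fluorescence. The RNA switches were transcribed on Illumina chips by stalled E. coli RNA polymerase. SNAP-549-labelled MS2 coat protein was titrated from 0.7 or 1.5 nM, doubling up to 3 µM, in Tris-HCl pH 7.5 buffer containing KCl, MgCl2, BSA, DTT, tRNA and Tween-20, with no input, 200 uM small-molecule ligand, or an oligonucleotide input.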
# [1] = input ligand: microRNA oligo, concentration not stated
# [2] = Eterna round: R95, input ligand: microRNA oligo, concentration not stated
# [3] = Eterna round: R95, input ligand: FMN 200 uM
# [4] = Eterna round: R95, input ligand: none
sequence,measurement,setting,value
"AUCGUGCAGCUUUGCUGUACGAGUACAUGAGGAUCACCCAUGUAGGAUAUGGUACGCUUUGCGUGCUAGAAGGAUAUGAGAUUA [EX ENG3 1.48] (Eterna round: R96, puzzle: Exclusion NG 3)",apparent KD of MS2 coat protein,input ligand: FMN 200 uM,40.2 nM
same,apparent KD of MS2 coat protein,[1],28.5 nM
same,apparent KD of MS2 coat protein,input ligand: none,31 nM
AUCUUGUCAGGAUAUCUGACAAGUGACUUCGGUCACAGUUCAGAGAAGGUACAUGAGGAUCACCCAUGUAGAAC [Ex4-3: 39] (puzzle: Exclusion 4),apparent KD of MS2 coat protein,[2],17.9 nM
"AUGAACAAUGUAGGAUAUGCGUGGCGAAGCUAUGCAGAAGGACAUGAGGAUCACCCAUGUUCAAGCGUCUGCGUACAGAUGCUA [JL eng1 1.35 mod 7] (Eterna round: R96, puzzle: Exclusion NG 1)",apparent KD of MS2 coat protein,input ligand: FMN 200 uM,26.9 nM
same,apparent KD of MS2 coat protein,[1],10.3 nM
same,apparent KD of MS2 coat protein,input ligand: none,13.8 nM
"AUGAGGGUAAGAAGGUGAAGAUAGAGCGUACCUUAUGGAACAUGAGGAUCACCCAUGUAGCUUUUUGCUCGUCUUAU [JR_SV3TOV2_Sub032] (puzzle: Sensor v3, turn-off variant 2)",apparent KD of MS2 coat protein,[3],36.1 nM
same,apparent KD of MS2 coat protein,[2],84 nM
same,apparent KD of MS2 coat protein,[4],35.6 nM
"AUGCCACAUGAGGAUCACCCAUGUGAGGAUAUGCUAGUAUUCCUAACGGCCGAUGCAGGCAGAAGGCGCUCGGG [Eternabot (L1) Solution 73] (Eterna round: R97, puzzle: Exclusion 1)",apparent KD of MS2 coat protein,input ligand: FMN 200 uM,19.5 nM
same,apparent KD of MS2 coat protein,input ligand: none,24.5 nM
"AUGCCCUGAGGAUAUCUCAUCCCGCACAUGAGGAUCACCCAUGUUCUUCUCUGGGUUUCGAGAGAAGGCAGGCCUA [Armus3] (Eterna round: R97, puzzle: Exclusion 5)",apparent KD of MS2 coat protein,input ligand: FMN 200 uM,53.6 nM
same,apparent KD of MS2 coat protein,input ligand: none,118 nM
"AUGCUCCGUGUAGGAUAUCGCCGUAUUACUCGGCGAGAAGGACAUGAGGAUCACCCAUGUAUGUUAUUAUCACGUGUGGCGCGC [Design 46] (Eterna round: R96, puzzle: Exclusion NG 1)",apparent KD of MS2 coat protein,input ligand: FMN 200 uM,35.2 nM
same,apparent KD of MS2 coat protein,[1],15.4 nM
same,apparent KD of MS2 coat protein,input ligand: none,18.6 nM
AUGGACGCAGGAUAUACAUGAGGAUCACCCAUGUGAGGUUGGUAAGUAGGAAGUGAAGGUAGAAGGGCGAGAGA [JR_Exclu3_Sub097] (puzzle: Exclusion 3),apparent KD of MS2 coat protein,[3],107 nM
same,apparent KD of MS2 coat protein,[2],74.8 nM
same,apparent KD of MS2 coat protein,[4],84.3 nM
AUGGACGCAGGAUAUACAUGAGGAUCACCCAUGUUAGGGUUGUGAGUAGGAAGGGAAGGUAGAAGGGCGAGAGU [JR_Exclu3_Sub099] (puzzle: Exclusion 3),apparent KD of MS2 coat protein,[2],86.9 nM
AUGGUACAUGAGGAUCACCCAUGUUAGGAUAUCGCGUGUUCUAAAACUAAGAGAUACACGAGAAGGGACGACAU (puzzle: Exclusion 1),apparent KD of MS2 coat protein,[2],81.2 nM
"AUGUGCACGCUGCGAUCCUACAUGAGGAUCACCCAUGUGGUCUGGUGGCGUGGGUCACCGGACUUGGCUCGUCUUGG [salish99_S_TOV1_R5_075] (Eterna round: R97, puzzle: Sensor, turn-off variant 1)",apparent KD of MS2 coat protein,input ligand: FMN 200 uM,139 nM
same,apparent KD of MS2 coat protein,input ligand: none,170 nM
"AUGUGCACGCUGCGGUCCUACAUGAGGAUCACCCAUGUGGUCUGGUGGCGUGGGUCGCCGGACUUGGCUCGUCUUGU [salish99_S_TOV1_R5_030] (Eterna round: R97, puzzle: Sensor, turn-off variant 1)",apparent KD of MS2 coat protein,input ligand: FMN 200 uM,18.6 nM
same,apparent KD of MS2 coat protein,input ligand: none,18.7 nM
"AUGUUACUCUGAGGAUAUUGUUUAUUCUUCUCACAUGAGGAUCACCCAUGUUUCCGUGUUUACCGCAAGAAGGCAGUUUUGUUU [JR_ExcNG2_Sub028] (Eterna round: R96, puzzle: Exclusion NG 2)",apparent KD of MS2 coat protein,input ligand: FMN 200 uM,41.1 nM
same,apparent KD of MS2 coat protein,[1],29 nM
same,apparent KD of MS2 coat protein,input ligand: none,31.8 nM
"AUUAAAACGGCAGGAUAUCAGCGACAUGAGGAUCACCCAUGUUAGGGCUGACCCUGGAGUCUGGCUGAGAAGGGCCGACUCUCA [Riququ] (Eterna round: R96, puzzle: Exclusion NG 2)",apparent KD of MS2 coat protein,input ligand: FMN 200 uM,192 nM
same,apparent KD of MS2 coat protein,[1],33.2 nM
same,apparent KD of MS2 coat protein,input ligand: none,59.9 nM
"AUUAAUGUCAAAGGAUAUCAGCACGUGUAGUGCUGAGAAGGUUGAACAUGAGGAUCACCCAUGUAGAUCAUUAAUAAUUUAAUU [ENG1/10-B3] (Eterna round: R96, puzzle: Exclusion NG 1)",apparent KD of MS2 coat protein,input ligand: FMN 200 uM,25.5 nM
same,apparent KD of MS2 coat protein,[1],14.5 nM
same,apparent KD of MS2 coat protein,input ligand: none,20.6 nM
"AUUAUGUUAGGAUAUGCUUAUGGUGGAUAGUCCAGUAUGAUGUAGAAGGGACAUGAGGAUCACCCAUGUGCUGA [EX4 #34] (Eterna round: R97, puzzle: Exclusion 4)",apparent KD of MS2 coat protein,input ligand: FMN 200 uM,46.9 nM
same,apparent KD of MS2 coat protein,input ligand: none,41.9 nM
"AUUCAACAUGAGGAUCACCCAUGUGAGGAUAUGCGAGUAUAGACUUCGGUCUGAUAGAGCAGAAGGCGCAGAUA [EX1 #6] (Eterna round: R97, puzzle: Exclusion 1)",apparent KD of MS2 coat protein,input ligand: FMN 200 uM,48.7 nM
same,apparent KD of MS2 coat protein,input ligand: none,32.8 nM
"AUUCCCACCCGAGGAUAUGCUUUAUUGCCGGGUGGUCAACAUGAGGAUCACCCAUGUAACUAAACGCAGAAGGCGGACAAUAAG [Ediner] (Eterna round: R96, puzzle: Exclusion NG 2)",apparent KD of MS2 coat protein,input ligand: FMN 200 uM,33.5 nM
same,apparent KD of MS2 coat protein,[1],116 nM
same,apparent KD of MS2 coat protein,input ligand: none,33.8 nM
AUUGUAGUUGUGAGGAUAUCGUAGAUUUAUUGAAACGAGAAGGCACAUGAGGAUCACCCAUGUAAGUUGUAGGU [JR_BMOE4_Sub054] (puzzle: Brourd's mod of Exclusion 4),apparent KD of MS2 coat protein,[2],54 nM
"AUUGUUUGAUACCUCUAAUACAUGAGGAUCACCCAUGUUAUCGAGGAUAUGCAGAAGAGAGGAGAGCAGAAGGCGAAGUAAGAG [JR_ExcNG3_Sub027] (Eterna round: R96, puzzle: Exclusion NG 3)",apparent KD of MS2 coat protein,input ligand: FMN 200 uM,21.5 nM
same,apparent KD of MS2 coat protein,[1],15.9 nM
same,apparent KD of MS2 coat protein,input ligand: none,19.6 nM
"AUUUAACAUGAGGAUCACCCAUGUGAGGAUAUGCGAGUGUAGACUUCGGUCUGAUAGAGCAGAAGGCGCAGAUA [EX1 #9] (Eterna round: R97, puzzle: Exclusion 1)",apparent KD of MS2 coat protein,input ligand: FMN 200 uM,48.6 nM
same,apparent KD of MS2 coat protein,input ligand: none,45 nM
"AUUUAAUUUAAUAAGAUCACAUGAGGAUCACCCAUGUUAUAAUAGGAUAUCAGCUCGAUUAGAGCUGAGAAGGAUUAUAACAUG [ExNG3/9-A1] (Eterna round: R96, puzzle: Exclusion NG 3)",apparent KD of MS2 coat protein,input ligand: FMN 200 uM,35.3 nM
same,apparent KD of MS2 coat protein,[1],20.1 nM
same,apparent KD of MS2 coat protein,input ligand: none,28.8 nM
AUUUAGAGAGGAUAUAUUAUGUGAAACAUGAGGAUCACCCAUGUAAUAUGAUGGAUAUAAAUAGAAGGCUCAUUUA [Mat - Exclusion 5 - JL mod - D24] (puzzle: Exclusion 5),apparent KD of MS2 coat protein,[2],32.3 nM
"AUUUAUGGAGGAUAUACUUGAGGAUCACCCAAGUGGAGUCCCAAAUGGGCGGUAAAUAGUAGAAGGCCGUCUUA [jl-ex3-4.49 ViennaUCT mod] (Eterna round: R97, puzzle: Exclusion 3)",apparent KD of MS2 coat protein,input ligand: FMN 200 uM,17.2 nM
same,apparent KD of MS2 coat protein,input ligand: none,16.5 nM
"AUUUUGUCAGGAUAUUAGUAGUAAAUGAAUAAAAUUAUUACUGAGAAGGGACAUGAGGAUCACCCAUGUGUCUU [Mat - Exclusion 4 - Eli Mod - D9] (Eterna round: R97, puzzle: Exclusion 4)",apparent KD of MS2 coat protein,input ligand: FMN 200 uM,24.1 nM
same,apparent KD of MS2 coat protein,input ligand: none,23 nM
"AUUUUGUGAGGAUAUUAGUUGUAGAAAAUUGUUAGUAUAGCUGAGAAGGCACAUGAGGAUCACCCAUGUAAAUC [JR_Ex4_Sub042] (Eterna round: R97, puzzle: Exclusion 4)",apparent KD of MS2 coat protein,input ligand: FMN 200 uM,91 nM
same,apparent KD of MS2 coat protein,input ligand: none,19 nM
CAAAACAGAGGAUAUACAUUUCCUCACCGCCAAAUGGCGGAACAUGAGGAUCACCCAUGUAGAAGGCUGGAAAA [Gesous] (puzzle: Exclusion 2),apparent KD of MS2 coat protein,[3],292 nM
same,apparent KD of MS2 coat protein,[2],114 nM
same,apparent KD of MS2 coat protein,[4],118 nM
"CAAACCUCAGGAUAUCGAGACUCGGACAUGAGGAUCACCCAUGUGAGGCUCGUGAGUCCACGAGAAGGGAGGAGCA [Eternabot (Original) Solution 38] (Eterna round: R97, puzzle: Exclusion 5)",apparent KD of MS2 coat protein,input ligand: FMN 200 uM,26.1 nM
same,apparent KD of MS2 coat protein,input ligand: none,17.4 nM
CAAAUCUGAGGAUAUCGAUAUUUGUACAUGAGGAUCACCCAUGUCCUAUUUAUUAUAUUUCGAGAAGGCAGUGUAU [JR_E5_Sub094] (puzzle: Exclusion 5),apparent KD of MS2 coat protein,[2],19.2 nM
"CAACAUGAGGAUCACCCAUGUGGCCCUACGUGCUGGCUCGGGCAGGAUAUUAACCAAUGAGUAGUUAAGAAGGGCUCGCAAGUA [Eternabot solution 14] (Eterna round: R96, puzzle: Exclusion NG 3)",apparent KD of MS2 coat protein,input ligand: FMN 200 uM,223 nM
same,apparent KD of MS2 coat protein,[1],40.6 nM
same,apparent KD of MS2 coat protein,input ligand: none,76.6 nM
"CAAGAACAGGUCAGGAUAUGGCAAAUAAAUAACAACCAGAAGGGACUUGAGGAUCACCCAAGUUUAGAAGGGUA [Tebeorus] (Eterna round: R97, puzzle: Brourd's mod of Exclusion 4)",apparent KD of MS2 coat protein,input ligand: FMN 200 uM,221 nM
same,apparent KD of MS2 coat protein,input ligand: none,39.4 nM
"CAAGCCUGAACGGCCGCUCACAUGAGGAUCACCCAUGUCACCUGUGCUAGAGGACCACAUUAAUCGCUUCGUCUUGG [Eternabot (L1) Solution 7] (Eterna round: R97, puzzle: Sensor, turn-off variant 1)",apparent KD of MS2 coat protein,input ligand: FMN 200 uM,69.8 nM
same,apparent KD of MS2 coat protein,input ligand: none,88.9 nM
"CAAUUAAUUAAUUAAUAAUACAUGAGGAUCACCCAUGUAGAUCCUACAUACAAGCUAAGUAGCUCGUCUUAUAAUUA [Stov1/2-A3] (Eterna round: R97, puzzle: Sensor, turn-off variant 1)",apparent KD of MS2 coat protein,input ligand: FMN 200 uM,417 nM
same,apparent KD of MS2 coat protein,input ligand: none,625 nM
"CACAAUGACGUCAGGAUAUGUAAACAGCGAAGUUUGUAGAAGGGACAUGAGGAUCACCCAUGUAUAACUGGGAG [Eternabot (L2) Solution 27] (Eterna round: R97, puzzle: Brourd's mod of Exclusion 4)",apparent KD of MS2 coat protein,input ligand: FMN 200 uM,220 nM
same,apparent KD of MS2 coat protein,input ligand: none,149 nM
